# Measured values as given in IntAct's records for PubMed 18509061.
# B1: Histone deacetylase 7 (Mus musculus), Q8C2B3-1 (parent)
# chain: MHSPGAGCPALQPDTPGSQPQPMDLRVGQRPTVEPPPEPALLTLQHPQRLHRHLFLAGLHQQQRSAEPMRLSMDPPMPELQGGQQEQELRQLLNKDKSKRSAVASSVVKQKLAEVILKKQQAALERTVHPSSPSIPYRTLEPLDTEGAARSVLSSFLPPVPSLPTEPPEHFPLRKTVSEPNLKLRYKPKKSLERRKNPLLRKESAPPSLRRRPAETLGDSSPSSSSTPASGCSSPNDSEHGPNPALGSEADGDRRTHSTLGPRGPVLGNPHAPLFLHHGLEPEAGGTLPSRLQPILLLDPSVSHAPLWTVPGLGPLPFHFAQPLLTTERLSGSGLHRPLNRTRSEPLPPSATASPLLAPLQPRQDRLKPHVQLIKPAISPPQRPAKPSEKPRLRQIPSAEDLETDGGGVGPMANDGLEHRESGRGPPEGRGSISLQQHQQVPPWEQQHLAGRLSQGSPGDSVLIPLAQVGHRPLSRTQSSPAAPVSLLSPEPTCQTQVLNSSETPATGLVYDSVMLKHQCSCGDNSKHPEHAGRIQSIWSRLQERGLRSQCECLRGRKASLEELQSVHSERHVLLYGTNPLSRLKLDNGKLTGLLAQRTFVMLPCGGVGVDTDTIWNELHSSNAARWAAGSVTDLAFKVASRELKNGFAVVRPPGHHADHSTAMGFCFFNSVAIACRQLQQHGKASKILIVDWDVHHGNGTQQTFYQDPSVLYISLHRHDDGNFFPGSGAVDEVGTGSGEGFNVNVAWAGGLDPPMGDPEYLAAFRIVVMPIAREFAPDLVLVSAGFDAAEGHPAPLGGYHVSAKCFGYMTQQLMNLAGGAVVLALEGGHDLTAICDASEACVAALLGNKVDPLSEESWKQKPNLSAIRSLEAVVRVHRKYWGCMQRLASCPDSWLPRVPGADAEVEAVTALASLSVGILAEDRPSERLVEEEEPMNL
# partner: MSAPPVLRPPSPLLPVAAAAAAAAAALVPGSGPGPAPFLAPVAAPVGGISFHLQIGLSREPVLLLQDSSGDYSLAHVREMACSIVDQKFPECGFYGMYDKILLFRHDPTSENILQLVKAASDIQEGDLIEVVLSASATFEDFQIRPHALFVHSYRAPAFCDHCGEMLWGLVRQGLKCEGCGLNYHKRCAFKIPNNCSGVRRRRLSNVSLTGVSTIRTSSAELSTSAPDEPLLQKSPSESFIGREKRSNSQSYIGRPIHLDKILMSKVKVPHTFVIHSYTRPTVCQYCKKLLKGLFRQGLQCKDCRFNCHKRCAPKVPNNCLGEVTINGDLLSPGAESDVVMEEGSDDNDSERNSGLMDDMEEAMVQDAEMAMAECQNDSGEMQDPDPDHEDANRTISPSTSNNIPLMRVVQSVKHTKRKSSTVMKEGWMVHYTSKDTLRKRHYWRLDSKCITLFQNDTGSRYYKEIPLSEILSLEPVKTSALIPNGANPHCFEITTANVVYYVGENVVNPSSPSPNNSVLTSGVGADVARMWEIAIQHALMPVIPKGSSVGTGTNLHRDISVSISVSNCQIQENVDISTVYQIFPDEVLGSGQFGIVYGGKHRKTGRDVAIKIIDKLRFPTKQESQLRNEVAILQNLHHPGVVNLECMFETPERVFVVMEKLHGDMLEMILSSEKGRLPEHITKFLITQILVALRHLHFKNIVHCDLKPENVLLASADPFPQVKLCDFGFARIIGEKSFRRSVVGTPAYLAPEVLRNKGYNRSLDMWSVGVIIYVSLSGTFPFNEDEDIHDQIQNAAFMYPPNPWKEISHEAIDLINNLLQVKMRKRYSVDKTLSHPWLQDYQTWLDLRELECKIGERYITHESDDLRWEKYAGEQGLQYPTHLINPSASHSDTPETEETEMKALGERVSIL
# Variants of: B1
# Details: with kpcd1_human PRKD1, Q15139
row,Variant,effect of a mutation on the interaction
1,S178A;S344A;S479A,increasing interaction strength
